# In the DeepSol protein solubility set:
# Test: soluble on expression in E. coli; label from the status in PepcDB or PDB records
row,Sequence,soluble on expression in E. coli
1,MRVVVVGTRGSALALAQTRFVVERLKETWPETEFKIRTIKTRGDQGASPREEAIFVKEIQEALLSREIDIAVHSLKDLPTESPRGLKIASVPRRQDPRDVFLGKAAKRLKDLPPGAVVGTSSVRRKAQILALRPDLVVRDLRGNVDTRLAALGNGEYDGIVLAAAGLIRLDLRNRIDEFLDPGEVLPAPGQGALALEVREGDDLAEELCYALHHPPSYHRVRAERAFLRGLGAGCLAPVGALAHVEEDGTLRLEGVLLTPDGKSFIRAEIEGDVSEAEELGLDLARDVLEQGGREILAQIR,soluble
2,MRWFLLIVVSALFLSGCMPEIYTHASTPSTIIADNETHIAGRYAFVDVQVLDEYGLPVSGEDVSFYVDGAFLGEATTDTSGVARIGFFSPSEKTYTFTAVAGGVSRSFDVSFTKPKWLFIVWMAADNNLYYYSEDDLSEMRNASGSVSVVVVYDGIGIGDGMLVLDESGNFQAVVGTMGIDFNSGSYTNLEAWLEMILNQFDADHYALVIWDHGSAWIGDSYYISTKVIGYDDFQGTAIAVSNLRKALENALSGDKLDILGFDACLMGSLEVIYELRNTADYIVASSFNEPAEGWDYSFLGEIAPDSTPLDVARMIVDSYREYYSSDTYQNELSLAVYDTSQVEVFVSDLNLFISDLKADLSKVDAVYSDVVKSYIDDYNQTVLVDLGDFIDRWVSSSRITTAPDLSSVVVYSYGEIAGKTLSFPISIFMPESMSCYQDYQTDYQTLSFPYDTQWDEFLEYWLNQKGGLEHHHHHH,not soluble
3,MRYLPIFVFLGSFGYTETTLTKELIKDAAEKCCTRNRQECCIEIMKFGTPIRCGYDRDPKLPGYVYKCLQNVLFAKEPKKKINLDDSVCCSVFGNDQNDSGRRCENRCKNLMTSPSIDAATRLDSIKSCSLLDNVLYKCFEKCRSLRKDGIKIEVLQFEEYCNATFIQKRTFRGV,not soluble
4,MSAALVAQQVATLREQGFAVVRNFASPPVRQALRELALQHLAQTVDPVEYEADLKYPGAPSSRLAAGGQTVRRLLDAYGRDQRFRDWATQAAIGAFLRAYFQDTPVLSTVHHNCIMTKHPAFGSLTGWHQDIRYWSFSDDDLVSCWLALGDERADNGGLYFVPGSHTASFMPEQYDARKFFRDDLPQNQEWIGRAVCPELQAGDVVFFHCRTLHAARQNATDTVKLSLVHTYHPASCHPLPGTRSAGSPGVPLPLEHHHHHH,not soluble
5,MSAEAVIENRDYTLMIDKSSSMATADDPNGPTRWEIAQASTIALAKKCEEIDSDGITVYLFSGRFRRYDNVTAEKVAYIYANNEPMGRTDLAGALKDGLDNFFQRRQAGQTKPNGETFLIITDGEPTDRKAVIRLILEASQKIDRDEELAISLIQVGRDKKATAFFQALDDQLQAAGAKFDIVDTVTMEDMQGMSLSDVLLKAITDLEHHHHHH,not soluble
6,MSAIKEVKSELRQFMKTLLGKISKEETQRQTEAVFEKIIESKWFQESKRLSVYVSTSGEIQTDSIIQKALEMGKEVFIPQFTKGSTAMDMVRVPDQTAFDNLPSTLWGIRQPEPKWKWQSYHETGPLDLILAPGVAFSPYGLRCGHGKGYYDRFFSTHHKHFPENSPKKIGLALREQIIGTIPISETDVELDEVIYEGETIIFDTI,soluble
7,MSAKNVLKMANRNSANKRDILGDLLSLSSNKTVNLNEMAHGQGKRKMASIDGQKENPKRIKMSQHMTAKEVKIPLLRTPDEEARKIEKLRREARIKRSKEVHYDAAEQQQIMMNYEWTVQMEEQEKLRKKVEKKH,not soluble
8,MSANDRRDRRVRVAVVFGGRSNEHAISCVSAGSILRNLDSRRFDVIAVGITPAGSWVLTDANPDALTITNRELPQVKSGSGTELALPADPRRGGQLVSLPPGAGEVLESVDVVFPVLHGPYGEDGTIQGLLELAGVPYVGAGVLASAVGMDKEFTKKLLAADGLPVGAYAVLRPPRSTLHRQECERLGLPVFVKPARGGSSIGVSRVSSWDQLPAAVARARRHDPKVIVEAAISGRELECGVLEMPDGTLEASTLGEIRVAGVRGREDSFYDFATKYLDDAAELDVPAKVDDQVAEAIRQLAIRAFAAIDCRGLARVDFFLTDDGPVINEINTMPGFTTISMYPRMWAASGVDYPTLLATMIETTLARGVGLH,soluble
9,MSANFTDKNGRQSKGVLLLRTLAMPSDTNANGDIFGGWIMSQMDMGGAILAKEIAHGRVVTVAVESMNFIKPISVGDVVCCYGQCLKVGRSSIKIKVEVWVKKVASEPIGERYCVTDAVFTFVAVDNNGRSRTIPRENNQELEKALALISEQPL,soluble
10,MSAPKRPKFSVGDIVVNTLYGTVGTITDIQQIDGTFLYEINHGHSLFAEQALILLSEFAGDLWIAEEIEIELPFFLGEIVRVRDYGGHLFKIVGVRTEIYRYYGEGWEETIYELKRLTDGWEIEVHLEDIIPLADGEETSVTLVQDIVIAAPVKASLLLPPADSGEKGPSVDELLDMYNDYKALYEWFGDEQYQRMMETVVKRLRTISDHQDRN,not soluble
11,MSASAETVAPEGYRKLLDVQIFKDSPVVGWSGSGMGELETIGDTLPVDTTVTYNGLPTLRLNVQTTVQSGWWISLLTLRGWNTHDLSQYVENGYLEFDIKGKEGGEDFVIGFRDKVYERVYGLEIDVTTVISNYVTVTTDWQHVKIPLRDLMKINNGFDPSSVTCLVFSKRYADPFTVWFSDIKITSEDNEKSAPAIKLEHHHHHH,soluble
12,MSATAKAPYSKTFIRSCILYEVLQKKPVFEAYQKICRSLKERISYQEFDYWFYKFYNGNHDLEDEISDEQSLVNPLLDMSNNLSEKEWCRSFVQFFHGLPPRPNKKPAFSLQSMPRKVWQELCSKLEPCDRLVAKKVTRRFRQTIDEQDNLFNTLGICFEDDKTRIFFNEKTFHYTSVGNECRITLDLFTKEDAIKIKDILTRSDNFKYANFESGNFDPIEIANVFIPNYQSNHWPIINYMRHNKKFLLKITPMTFQIKKID,not soluble
13,MSAVNRAAVEAVLRQYTDPYLNQDPVSAGCVRDIEVQGDRVTVRMELGYAAGLFKSGWAQMLQLAIEGLDGVSSAKVEISSVIAAHKAQAQIPGLANVKNVVAVASGKGGVGKSTTAANLALALAREGAKVGILDADIYGPSQGIMFGIAEGTRPKIKDQKWFVPIESHGVEVMSMAFLTDDNTPMVWRGPMVSGALLQLVTQTDWGNLDYLVIDMPPGTGDIQLTLAQKVPVAGAVIVTTPQDLALLDARKGVEMFRKVNIPVLGVVENMAVHICSNCGHAEHLFGEGGGEKLASQYDVELLASLPLSMLIREQADGGKPTVIAEPESQIAMVYQELARHVGARIVLQEAAAPAMPNITISDDLEHHHHHH,not soluble
14,MSCDGGKPAPAKLGDEQLAELREIFRSFDQNKDGSLTELELGSLLRSLGLKPSQDQLDTLIQKADRNNNGLVEFSEFVALVEPDLVKCPYTDDQLKAIFRMFDRDGNGYITAAELAHSMAKLGHALTAEELTGMIKEADRDGDGCIDFQEFVQAITSAAFDNAWG,soluble
15,MSDATLHNTTQDPDDFAVQIADQVESFLVAVTEVAKGDEPDSAVPFLLLEVSQLLLAGGRLGAHEDIVPDERYEPDMGPEPDVDELRERLATMLDPVDVYSEVFDPYEPRKAPVPARISDDLADVIADLRHGMAHYRAGRTTEALWWWQFSYFSNWGSTASATLRALQSLVAHVRLNQPLEELDGLDTDQDLSEDALAEEAGRVMASEIAGPLGLRTVRLEHHHHHH,soluble
16,MSDDEAAVPGNKPIRLPKKAAKVKNKAPAQLQITAEQLLREAKERELELIPPAPKTKITDPDELKEYQRKKRKEFEDGIRKNRMQLANWIKYGKWEESIGEIQRARSVFERALDVDHRSISIWLQYAEMEMRCKQINHARNVFDRAITIMPRAMQFWLKYSYMEEVIENIPGARQIFERWIEWEPPEQAWQTYINFELRYKEIDRARSVYQRFLHVHGINVQNWIKYAKFEERNGYIGNARAAYEKAMEYFGEEDINETVLVAFALFEERQKEHERARGIFKYGLDNLPSNRTEEIFKHYTQHEKKFGERVGIEDVIISKRKTQYEKMVEENGYNYDAWFDYLRLLENEETDREEVEDVYERAIANIPPHSEKRYWRRYIYLWINYALYEELVAKDFDRARQVYKACIDIIPHKTFTFAKVWIMFAHFEIRQLDLNAARKIMGVAIGKCPKDKLFRAYIDLELQLREFDRCRKLYEKFLESSPESSQTWIKFAELETLLGDTDRSRAVFTIAVQQPALDMPELLWKAYIDFEIACEEHEKARDLYETLLQRTNHIKVWISMAEFEQTIGNFEGARKAFERANQSLENAEKEERLMLLEAWKECETKSGDQEALKRVETMMPRRVKKRRQIQTEDGVDAGWEEYFDYIFPQDQAAKGSFKLLEAAARWKREREEAAARAAQELDAPIPEGDDDEEKEEAGKDAEEKVREGDSDTDLSESSSSSDSESSSSSSSDSSDSSDDDEDK,not soluble
17,MSDICVIIAAYNAEATIAQAVTSALAEAEVAEVVVVDDASSDATAEAALAASDGSGRLIVERQAQNGGPSAARNRAVALSQAPRIAILDADDFFLPGRFARLDPDLDLAADNIVFVTPEHAARLDPTNLPAAPREVEMLDAERFALGNLAQGVHRGELGFLKPVMSRAFLTRHGLRYDERMWLGEDFDLYMRMLLLGARFGLTRAVGYAAVQRGASLSGRHRTADLAALEACCRAHLEMPASPATQEAMRRHLRQVQAKLLLRQFLDRKAEAGLGAALGFALAPPARFLPIAKGVARDKIAALRPPAPPRAERFLLPVLEHHHHHH,not soluble
18,MSDIERRHTIMAKGSVRKKGKKWYYRFYVEDASGNLVQKEYAGTESKSETEKLLRQAMDDYESKKFIAKSENITIGELLDIWAEEELKTGMLSNGTVQNYLGAITNIKKHPISERKLKNVTSEHLQAFFDLLSFGGTYPDGSERKGYSKDYIRSFSAVLQQSFRFAVSPKQYITFNPMQYIKLKYQTDEVDLFSDDDMDGDIQPIPREDYERLIEFLQNYNPPAILPIQIAYYAGLRIGEACGLAWQDVNLEEQCLTIRRSIRYDGSRHKNIIGPTKRKKVRIVDFGDTLAEILRNARKEQLKNRMQYGELYHKNYYREVKDKNRVYYEFYHLDGTENVPEDYKEISFVCLRPDGSLELPSTLGIVCRKIAQKLDGFEGFHFHQLRHTYTSNLLANGAAPKDVQELLGHSDVSTTMNVYAHSTRKAKRESARLLDKVAGND,not soluble
19,MSDKLTEKTVKLDTPIMRGKTEITEIVLRKPQSGALRGTRLQAIMDMDVGAMMTVIPRISTPTLTAQEMAELDPADLTALSVEVVTFLLKKSVLAGLPTA,not soluble
20,MSDKPHRIVIVGGGAGGLELATALGNKYGKSDAVRVTLVDRSRTHIWKPLLHAIAAGSLRRSQHELNYLAQAHWHGFHYRLGEMNGLDRARKVIKLAPVIDDEGREINPESELAYDTLVIAIGSVTNDFGTPGARDHAVPLETPEQASRFNKRMVNACLRAQHQHAPIEPGQLHVAIIGAGATGTELAAELHHTAREIIAYGLDKIDPEHDLKIVLIEAAPRILPALPPRISDATLKLLLDLGVEVRTGARVAEVLDHAVRLADGEVIPSELVVWAAGVRAPDFLEGIDGLDTNRINQLVVRPTLQTTRDDNVFGMGDCAACAIPGYENGVPPRAQAAHQEAEFMLEQIEKRLKGEPLGEFRYRDLGSLVSLGKYSAVGNLMGSLVGKSFLIEGYFARFMYRSLYKMHEAALYGRGRTLLSVLSGSTRPTPTVKLHLEHHHHHH,not soluble
21,MSDLKNLILNSSILLDTSSTVQNDLNPEQLINVHEDSDGGRDLLTPESFILLMAEILSTNNADTICEYEHQNSADNKVLQNLQFKEVEEDEQIEGLNEQKKSLDNPLWHDVDLPVINEISGNQCEGQFESTLEKNVALTWINSENFQPPIVKPENQTDETYKIWDSEITSIESGKLKLDFPKADYDGNNINPYQKEAINQPGNDSSKNHQLIKGNDSFPILEDIKTNAEPGTKAIKSEVEATKVGTEIPGSSFQMNQKAGSDIQPPVVSNSHIPKNFSIPIHVNHSQWSEQLSEHIVWLGHQDVKSALIKIHPEELGPLEINVKVVKDNASVNISTHSVYVKEIVDQAIPRLREMMAQQGINLSEVHIGTDTSSRQGSQKNHHAEIDLIQSAEDKNKITSLTRHLPKGLVDYFA,not soluble
